Measured values reported in patent US20220273751A1 (GPCR THERAPEUTICS, published 2022).

Target: ADRB2 (Adrenoceptor Beta 2) (human, UniProt P07550 1-413)
Experiment: cell-based or functional assay

B1: CXCR4 (C-X-C Motif Chemokine Receptor 4) (receptor, human, UniProt P61073 1-352, looked up)
chain: MEGISIYTSDNYTEEMGSGDYDSMKEPCFREENANFNKIFLPTIYSIIFLTGIVGNGLVILVMGYQKKLRSMTDKYRLHLSVADLLFVITLPFWAVDAVANWYFGNFLCKAVHVIYTVNLYSSVLILAFISLDRYLAIVHATNSQRPRKLLAEKVVYVGVWIPALLLTIPDFIFANVSEADDRYICDRFYPNDLWVVVFQFQHIMVGLILPGIVILSCYCIIISKLSHSKGHQKRKALKTTVILILAFFACWLPYYIGISIDSFILLEIIKQGCEFENTVHKWISITEALAFFHCCLNPILYAFLGAKFKTSAQHALTSVSRGSSLKILSKGKRGGHSSVSTESESSSFHSS
calcium response on co-stimulation with CXCL12 (200 nM) and formoterol (10 uM) relative to CXCL12 alone, HL-60 cells: ~8 fold
calcium response on co-stimulation with CXCL12 (200 nM) and formoterol (10 uM) relative to CXCL12 alone, U937 cells: ~4 fold
